# Molecular target: taxol-stabilized microtubules (UniProt Q6B856)
# Assay: co-sedimentation
# UniProt Q6B856, sequence (Q6B856 whole entry, looked up): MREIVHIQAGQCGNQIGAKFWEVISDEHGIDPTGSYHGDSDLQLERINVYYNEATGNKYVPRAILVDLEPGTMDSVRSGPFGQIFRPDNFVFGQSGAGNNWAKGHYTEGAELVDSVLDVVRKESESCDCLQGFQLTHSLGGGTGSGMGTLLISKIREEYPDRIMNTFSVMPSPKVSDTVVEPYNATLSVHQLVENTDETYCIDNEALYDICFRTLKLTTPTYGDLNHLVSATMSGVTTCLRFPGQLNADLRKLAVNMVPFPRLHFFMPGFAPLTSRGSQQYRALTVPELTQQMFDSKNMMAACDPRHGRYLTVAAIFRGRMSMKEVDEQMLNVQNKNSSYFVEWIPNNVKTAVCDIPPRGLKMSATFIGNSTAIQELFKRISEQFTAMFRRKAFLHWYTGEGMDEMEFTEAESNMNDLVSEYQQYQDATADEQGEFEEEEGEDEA
row,Kd [nM],Substance
1,1270,"6xHIS-tagged ZmTAN1 (TANGLED1, maize) (natural protein)"
2,590,HIS-TAN1-GFP (natural protein)
3,60,HIS-TAN1-GFP-Atto488 (natural protein)

# Source: paper doi:10.1101/711796
